Earlier results in PMC3061256.

Target: HPr (Escherichia coli) (UniProt P0AA04)

## EIN (enzyme I N-terminal domain) N-terminal domain (from UniProt P08839)
  Kd: 10 µM
